According to PMC5376091:
Values belong to the molecule of their own block, whether it stands above or below them.

Target: wild type (WT) Aβ40 peptide (human)

ThT fibrillization of 25 μM WT Aβ40 co-incubated with A2V NTF(1–10) (1 to 1 and 1 to 6): shortening of the lag phase: 8 h | ThT signal of the end-point product of 25 μM WT Aβ40 with A2V NTF(1–10) (1 fold and 6 fold), against WT only: 22%
Molecule: A2V NTF(1–10) (peptide)

ThT fibrillization of 25 μM WT Aβ40 co-incubated with full-length A2T (WT to A2T 1 to 1 and 1 to 2): extension of the lag phase: 8 h
Molecule: Aβ40 A2T variant, full-length (peptide)

ThT fibrillization of 25 μM WT Aβ40 co-incubated with full-length A2V (WT to A2V 1 to 1 and 1 to 2): shortening of the lag time: 6 h | ThT signal at the final plateau of 25 μM WT Aβ40 mixed with two fold full-length A2V, against WT alone: 40%
Molecule: Aβ40 A2V variant, full-length (peptide)

ThT fibrillization of 25 μM WT Aβ40 co-incubated with A2T NTF(1–10) (1 to 1 and 1 to 6): decrease of the ThT plateau: 20%
Molecule: DTEFRHDSYG [A2T NTF(1–10)]
